The values that follow come from publication PMC2783309 (Experimental cell research, 2009).

The experiment concerns the target Biotinylated Clostridium difficile toxin A (Clostridium difficile strain VPI 10463, UniProt P16154 1-2710). Briefly: pull-down.

Sequence of Biotinylated Clostridium difficile toxin A (P16154 whole entry): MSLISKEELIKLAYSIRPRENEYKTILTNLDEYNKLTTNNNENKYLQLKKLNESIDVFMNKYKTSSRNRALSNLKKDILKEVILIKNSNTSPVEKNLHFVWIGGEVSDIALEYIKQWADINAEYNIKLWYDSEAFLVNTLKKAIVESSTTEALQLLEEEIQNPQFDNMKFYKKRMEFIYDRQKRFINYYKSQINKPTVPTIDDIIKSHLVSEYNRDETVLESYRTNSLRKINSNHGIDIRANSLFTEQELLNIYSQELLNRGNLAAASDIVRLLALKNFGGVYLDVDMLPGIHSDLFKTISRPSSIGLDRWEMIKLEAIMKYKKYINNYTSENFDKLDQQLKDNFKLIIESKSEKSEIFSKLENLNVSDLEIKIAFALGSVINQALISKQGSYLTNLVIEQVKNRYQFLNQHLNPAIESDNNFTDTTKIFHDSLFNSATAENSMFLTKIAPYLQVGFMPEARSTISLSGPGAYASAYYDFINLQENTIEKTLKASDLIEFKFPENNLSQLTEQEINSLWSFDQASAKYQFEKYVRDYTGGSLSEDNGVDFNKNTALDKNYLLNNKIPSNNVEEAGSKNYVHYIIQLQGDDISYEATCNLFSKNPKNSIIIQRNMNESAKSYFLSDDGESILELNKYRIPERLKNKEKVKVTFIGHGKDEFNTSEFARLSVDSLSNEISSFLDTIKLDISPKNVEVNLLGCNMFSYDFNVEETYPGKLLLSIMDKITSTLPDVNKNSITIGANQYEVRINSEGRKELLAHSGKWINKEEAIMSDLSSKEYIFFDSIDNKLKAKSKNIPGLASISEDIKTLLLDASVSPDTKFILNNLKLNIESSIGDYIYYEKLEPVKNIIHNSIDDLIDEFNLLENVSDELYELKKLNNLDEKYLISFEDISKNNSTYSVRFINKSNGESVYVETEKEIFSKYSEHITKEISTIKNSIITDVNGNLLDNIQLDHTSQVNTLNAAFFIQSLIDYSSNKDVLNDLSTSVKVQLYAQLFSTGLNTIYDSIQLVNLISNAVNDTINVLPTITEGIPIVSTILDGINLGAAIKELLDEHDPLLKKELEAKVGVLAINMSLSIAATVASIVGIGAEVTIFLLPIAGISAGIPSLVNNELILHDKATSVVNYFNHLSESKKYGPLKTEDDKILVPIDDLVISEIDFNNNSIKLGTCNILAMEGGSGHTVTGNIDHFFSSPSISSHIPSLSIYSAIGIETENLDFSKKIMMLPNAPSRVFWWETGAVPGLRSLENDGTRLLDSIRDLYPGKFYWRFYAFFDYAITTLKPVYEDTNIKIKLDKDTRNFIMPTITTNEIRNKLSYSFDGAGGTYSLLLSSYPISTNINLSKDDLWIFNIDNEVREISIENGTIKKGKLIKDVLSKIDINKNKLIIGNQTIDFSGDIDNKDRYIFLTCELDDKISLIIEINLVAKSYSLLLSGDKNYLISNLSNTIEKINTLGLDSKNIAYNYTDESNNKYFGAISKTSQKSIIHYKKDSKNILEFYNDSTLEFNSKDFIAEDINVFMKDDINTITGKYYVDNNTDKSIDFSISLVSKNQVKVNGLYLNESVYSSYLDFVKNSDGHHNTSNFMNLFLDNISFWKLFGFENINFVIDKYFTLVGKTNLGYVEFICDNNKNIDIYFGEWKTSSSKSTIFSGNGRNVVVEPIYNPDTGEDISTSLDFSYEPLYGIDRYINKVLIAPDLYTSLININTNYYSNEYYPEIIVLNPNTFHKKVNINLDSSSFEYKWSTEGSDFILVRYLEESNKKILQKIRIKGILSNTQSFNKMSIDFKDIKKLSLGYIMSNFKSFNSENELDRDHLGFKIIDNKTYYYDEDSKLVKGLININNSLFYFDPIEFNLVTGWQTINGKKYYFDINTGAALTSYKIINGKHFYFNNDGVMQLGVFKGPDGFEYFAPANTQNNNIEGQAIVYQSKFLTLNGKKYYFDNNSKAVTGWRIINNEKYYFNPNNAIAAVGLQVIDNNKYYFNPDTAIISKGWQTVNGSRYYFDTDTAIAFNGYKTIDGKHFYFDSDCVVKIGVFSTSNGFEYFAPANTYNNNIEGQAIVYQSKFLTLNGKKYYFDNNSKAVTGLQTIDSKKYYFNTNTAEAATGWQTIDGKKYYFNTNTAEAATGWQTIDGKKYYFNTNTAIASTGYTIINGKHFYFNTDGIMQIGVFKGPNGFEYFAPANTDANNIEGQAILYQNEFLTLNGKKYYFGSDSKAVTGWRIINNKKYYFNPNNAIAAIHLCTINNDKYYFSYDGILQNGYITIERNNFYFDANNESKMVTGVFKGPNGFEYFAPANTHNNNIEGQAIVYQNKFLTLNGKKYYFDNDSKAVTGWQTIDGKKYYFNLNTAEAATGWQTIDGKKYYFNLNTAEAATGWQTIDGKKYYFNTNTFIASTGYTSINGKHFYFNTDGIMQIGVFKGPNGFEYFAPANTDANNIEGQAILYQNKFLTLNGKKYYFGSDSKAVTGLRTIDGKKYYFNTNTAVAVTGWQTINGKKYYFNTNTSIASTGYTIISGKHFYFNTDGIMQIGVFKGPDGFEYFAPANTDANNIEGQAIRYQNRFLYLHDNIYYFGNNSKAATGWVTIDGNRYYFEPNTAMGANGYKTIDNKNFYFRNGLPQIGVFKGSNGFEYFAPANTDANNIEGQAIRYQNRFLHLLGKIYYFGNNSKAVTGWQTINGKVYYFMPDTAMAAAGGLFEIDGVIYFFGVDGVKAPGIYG

B1: GST-Src catalytic domain (domain or fragment, UniProt P12931-1 226-536, looked up)
chain: LQQLVAYYSKHADGLCHRLTTVCPTSKPQTQGLAKDAWEIPRESLRLEVKLGQGCFGEVWMGTWNGTTRVAIKTLKPGTMSPEAFLQEAQVMKKLRHEKLVQLYAVVSEEPIYIVTEYMSKGSLLDFLKGETGKYLRLPQLVDMAAQIASGMAYVERMNYVHRDLRAANILVGENLVCKVADFGLARLIEDNEYTARQGAKFPIKWTAPEAALYGRFTIKSDVWSFGILLTELTTKGRVPYPGMVNREVLDQVERGYRMPCPPECPESLHDLMCQCWRKEPEERPTFEYLQAFLEDYFTSTEPQYQPGENL
For B1, the binding result is “binds”.
